Data taken from the supplement of paper PMC9170038.

Assays:
[1] = tested on: K4 kissing-loop RNA reporter; assay: apparent KD of K4 kissing-loop reporter; higher = weaker reporter binding; settings: Eterna round: R107;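 also: bound reporter read as fluorescence of individual clusters on recovered sequencing chips by microscopy, with normalized cluster intensities fitted with a binding model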
Description: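 RNA-MaP round R107: designed RNA switches with theophylline, tryptophan, arginine or FMN aptamers are transcribed on-chip within common flanks. They are titrated with a labelled K4 kissing-loop RNA reporter in RNA-MaP buffer (100 mM Tris pH 7.5, 80 mM KCl, 4 mM MgCl2), without ligand or with the indicated ligand. Median apparent KD per design.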

MS2 coat protein = assay: apparent KD of MS2 coat protein; designed switch direction (-1 OFF switch, 1 ON switch): -1; higher = weaker reporter binding
Procedure, shortened: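 Stalled E. coli RNA polymerase transcribed designed RNA switches on Illumina chips, which were then titrated with SNAP-549-labelled MS2 coat protein, doubling from 0.7 or 1.5 nM to 3 µM. Steps lasted from 0.8–1.5 h at the lowest concentration to 10–20 min at the highest. The apparent KD is each design's median over clusters of curve-fitted normalised fluorescence.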

[2] = input ligand: theophylline 20 uM
[3] = input ligand: tryptophan 2.4 mM
[4] = input ligand: microRNA oligo, concentration not stated
[5] = Eterna round: R95, input ligand: FMN 200 uM
[6] = Eterna round: R95, input ligand: microRNA oligo, concentration not stated
[7] = Eterna round: R95, input ligand: none

Sequence	apparent KD of K4 kissing-loop reporter ([1]; input ligand: FMN 200 uM)	apparent KD of K4 kissing-loop reporter ([1]; input ligand: arginine 13.2 mM)	apparent KD of K4 kissing-loop reporter ([1]; input ligand: none)	apparent KD of K4 kissing-loop reporter [1, 2]	apparent KD of K4 kissing-loop reporter [1, 3]	apparent KD of MS2 coat protein (MS2 coat protein; input ligand: FMN 200 uM)	apparent KD of MS2 coat protein (MS2 coat protein; input ligand: none)	apparent KD of MS2 coat protein (MS2 coat protein; [4])	apparent KD of MS2 coat protein (MS2 coat protein; [5])	apparent KD of MS2 coat protein (MS2 coat protein; [6])	apparent KD of MS2 coat protein (MS2 coat protein; [7])
CUUCGAUUAACGGAUACCAGUCACUUGGGAGCCACACACAAGUGAGUGAUGUUCACUUGUGACCCUUGGCAGCCGUUAGUCGAAG [#05 K4 Theophylline B Exclusion]	0.106 µM	0.0849 µM	0.0994 µM	0.157 µM	0.0979 µM	–	–	–	–	–	–
CUUAUGGCGUUUGGAAGGAGCGGCUCAUCACGAGGACCGGUACGGCCGCCACUCGAGAGAGCAUAAGAAAGUGAUGUUUUCGGUU [theeternabot_sameState_KL_Trp_A_44]	0.517 µM	0.415 µM	0.496 µM	0.395 µM	0.314 µM	–	–	–	–	–	–
UGUGCCAAAUGUGAUACCAGCAUCCUGCAGUGAUGUUGCAUACGAGUGAUGUUCGUCCGAUGCCCUUGGCAGCGCAGUAGUUUGA [Same State Theophylline B GF 26]	0.264 µM	0.263 µM	0.307 µM	0.326 µM	0.239 µM	–	–	–	–	–	–
UCAGAGAACGAAGGAUAUUGACCUGUUUUAUGCUAUGAGUGAUGUUCUUAGUAUCAGCGAGAUGAUCAAGAAGGUCGGGUUCGAC [theeternabot_sameState_KL_FMN_B_48]	0.125 µM	0.174 µM	0.197 µM	0.183 µM	0.152 µM	–	–	–	–	–	–
GGAUAGGACAGAGGAUAUUGGUAGUGAUGUUACCAAAUAAAUAAACAGUCUACAAAGUAGGCUGACCAAGAAGGCUGUCCUAUCG [FmnBX 24 #SwitchBubble #StaticStem #Palindromic]	0.226 µM	0.0791 µM	0.0852 µM	0.0801 µM	0.0747 µM	–	–	–	–	–	–
AAGUGUGGUCCAGUGAUGUUGGAACCAGAUACCAGCGACAUAGUGCGCCCUUGGCAGCUGGCACACAUGCGCUGCACGACUAGAA [Riusveis]	0.206 µM	0.182 µM	0.207 µM	0.363 µM	0.168 µM	–	–	–	–	–	–
UGUGAACAAAAGUAGAGUGGACCACUAUAGCGAGGACCGGUACGGCCGCCACUCGUACAUGAAUUCAGUGAUGUUGAAAUGAGCU [whbob_EX_Tryp_A_t14]	0.234 µM	0.36 µM	0.334 µM	0.426 µM	0.213 µM	–	–	–	–	–	–
GCAGUGAUGUUGCACGAGUAGGCUGGAGUACGAGGACCGGUACGGCCGCCACUCGUACGGAAGUCGCUAAUUUAUGGAAUGGUGA [#06 K4 Tryptophan A Same State]	0.592 µM	0.381 µM	0.341 µM	0.413 µM	0.436 µM	–	–	–	–	–	–
GGUGAUGAGCACGAUACCAGCCUCGGAGCCAGUGAUGUUGGCCCAGUUUAGAAUAAGACAGGCCCUUGGCAGCGUGACGAUGGCU [Inorusre]	0.885 µM	0.98 µM	1.02 µM	0.687 µM	0.981 µM	–	–	–	–	–	–
AGUAUGUAAUAUGGCAUAUUUAGAACUGAAGGAGCGCCGAAUAAGGCAGGUAGGUCGCGGUUUUAUGAGUGAUGUUCUUGUUUAA [KL-SSArg-A24]	0.156 µM	0.125 µM	0.149 µM	0.329 µM	0.111 µM	–	–	–	–	–	–
GAUUCAGUGAUGUUGGAAGGCGAGCGGGAUACCAGCCAAGACUCAGGCCCUUGGCAGCCCACAUAUCCCAGGUAGAUAGUCGCUC [Same State - Theophylline A (Freestyle 11)]	0.271 µM	0.265 µM	0.254 µM	0.293 µM	0.27 µM	–	–	–	–	–	–
AGAGUUUUAUGAGGAUAUGAGAUAGUUAAUGAGUGAGUUAUAGUGUAGUUUGUUUAGUGAUGUUAUUUAGAAGGCGUGAGUGAUG [ssxsmullin]	0.151 µM	0.0959 µM	0.122 µM	0.132 µM	0.0844 µM	–	–	–	–	–	–
AGUCCACUCUAAAGAGUGGACCUAAGGGAUACCAGUGAUGUUGGUCACCCUUGGCAGCCCGCUGUCAUCGAUAAAGAUGGCAGAA	0.136 µM	0.121 µM	0.12 µM	0.147 µM	0.12 µM	–	–	–	–	–	–
GAAUCAUGUAGAAGGAGCGUUAGAAGUUAUAGGGAUGAGUGAUGUUUGUGUUAGUAAAUCUGACAGGUAGGUCGCUACAGAAGGA [KL-SSArg B21 #analogue]	0.712 µM	0.258 µM	0.607 µM	0.132 µM	0.308 µM	–	–	–	–	–	–
AUUUUGGUUUAGAGUGAUGUUCCUUGUAUUCGAGGACCGGUACGGCCGCCACUCGAAUAGAAAAGAAAAGAAAUGUUUGAUGUUU [BDazzled - #6 SS Tryptophan A]	0.551 µM	0.193 µM	0.537 µM	0.274 µM	0.393 µM	–	–	–	–	–	–
GGAGGAGAAUAUGAUACCAGCAGAGAGAGAGAGGAAGUAUAGUGAUGUUAUAUGAGAGAAUGCCCUUGGCAGCAUAAGACGCAGG [#07 K4 Theophylline B Same State]	0.194 µM	0.114 µM	0.11 µM	0.144 µM	0.0947 µM	–	–	–	–	–	–
UGAUACCAGACGGCCGCCACUGCGCCAGUCAAUGACUGAGCGCGGUGGCGCUCAGUGAUGUUGUGCAGGACCGGGUCUGGUAUCU [Mod of Eli's TrypBX 8 v6]	0.476 µM	0.383 µM	0.41 µM	0.364 µM	0.398 µM	–	–	–	–	–	–
UGUACCGAGUCAGGAUAUGGCGUCGAAAGACGAAUCUUAGUGAUGUUAGGGAUCUGCGAAAGCAGUCCAGAAGGGACUUGGUACU [FmnBS 26 U37]	0.568 µM	0.583 µM	0.768 µM	0.605 µM	0.901 µM	–	–	–	–	–	–
AAUCACCGAGCGGCCGCCACUGCACAAAGCGAGUUUAUAGACACGGUACUGGAGUGAUGUUCGAGCAGGACCGGGCUAACUAAGC [theeternabot_sameState_KL_Trp_B_12]	0.871 µM	0.61 µM	1.19 µM	0.758 µM	0.729 µM	–	–	–	–	–	–

Sequence	apparent KD of K4 kissing-loop reporter ([1]; input ligand: FMN 200 uM)	apparent KD of K4 kissing-loop reporter ([1]; input ligand: arginine 13.2 mM)	apparent KD of K4 kissing-loop reporter ([1]; input ligand: none)	apparent KD of K4 kissing-loop reporter [1, 2]	apparent KD of K4 kissing-loop reporter [1, 3]	apparent KD of MS2 coat protein (MS2 coat protein; input ligand: FMN 200 uM)	apparent KD of MS2 coat protein (MS2 coat protein; input ligand: none)	apparent KD of MS2 coat protein (MS2 coat protein; [4])	apparent KD of MS2 coat protein (MS2 coat protein; [5])	apparent KD of MS2 coat protein (MS2 coat protein; [6])	apparent KD of MS2 coat protein (MS2 coat protein; [7])
GCAUCCAUGUGAGGAUAUCGAGACGAGUGAUGUUCGGGCACCAGACAGGGAGACCUGUCAAUGGCUUGAGAAGGCACAUGGAUGC	0.231 µM	0.196 µM	0.249 µM	0.199 µM	0.217 µM	–	–	–	–	–	–
UUUCGGUUCUGAGGAUAUUCGGACAAAUAUAGUGAUGUUGUAUAAGGAGGAGGGUGUUGGGAGUGAGGAGAAGGCAGAAGAGGAU [ExFMNB.S]	0.838 µM	0.707 µM	0.759 µM	0.67 µM	0.473 µM	–	–	–	–	–	–
UGAUAGGACAGAAGGAGCGGAGCUGGUCAAAGACCAGCAAUACGUUGAAAAGGAGUGAUGUUCCAGGUAGGUCGCUGUCCUAUCU [ArgBX 27 #SwitchBubble #StaticStem]	0.0935 µM	0.103 µM	0.106 µM	0.133 µM	0.0852 µM	–	–	–	–	–	–
UAGAAGAGAAGCGAUACCAGCGAAUGAAGAAGAUGAUGAAGCCAGUGAUGUUGGAAAGAACGCCCUUGGCAGCGCAAGAGAAGAU	0.119 µM	0.163 µM	0.107 µM	0.175 µM	0.0832 µM	–	–	–	–	–	–
UUGACCUACUCAGGAUAUCCGCAGUGAUGUUGCGGUUGGCCUGAGCGGCAUGAAAAUCUUACUACAGGAGAAGGGAGAGGGUUAC [Atusgeis]	0.117 µM	0.0856 µM	0.0826 µM	0.0729 µM	0.086 µM	–	–	–	–	–	–
AAGUGAUGUUGUAGUGAUGUUGUGAUGUUGCAGGAUAUAUAGUGAUGUAGAAGGGUAUGUACUUAUUUUUUUUUUGAGUUAUGUU [wzzwzrmullin]	0.0795 µM	0.0334 µM	0.058 µM	0.0462 µM	0.0633 µM	–	–	–	–	–	–
AGCCAAGCAGGAUAUACCCGGGAUAACAUGAGGAUCACCCAUGUGACCGAUUGAUGUCCUGUAGAAGGGCUUGGGA [Mod of ViennaUCT 21 - Jieux - Exclusion 5] (Eterna round: R97, puzzle: Exclusion 5)	–	–	–	–	–	0.0781 µM	0.0283 µM	–	–	–	–
GCAGCAUAGUUUACUAACUGUUACAUGAGGAUCACCCAUGUUUAGGAUAUGGUCUGGAUUACAGGCCAGAAGGGAACAAGCUGC [Eli exng3 - 032] (Eterna round: R96, puzzle: Exclusion NG 3)	–	–	–	–	–	–	–	0.0103 µM	–	–	–
UAUUAGUAAGGAUAUCUCGUCAUGGACGUGAGUCCAUGACGAGAGAAGGUACAUGAGGAUCACCCAUGUCCAUU [Mod of Fisker 20 - Jieux - Exclusion 4] (Eterna round: R97, puzzle: Exclusion 4)	–	–	–	–	–	0.0165 µM	0.0141 µM	–	–	–	–
AAUACAAGCAAGAUCCUAAACAUGAGGAUCACCCAUGUGCUCGUCUUGUAAAGUACUAUCACGAAAGUGAUAGUACA [Sensor 3, v1 - 62] (puzzle: Sensor v3, turn-off variant 1)	–	–	–	–	–	–	–	–	0.0294 µM	0.103 µM	0.0327 µM
AAGAGGUCAGGAUAUUGGGCGGAAAGGGAAAGGAAAGGGCCCAAGAAGGGACAUGAGGAUCACCCAUGUAAGAA [Excls4-I] (puzzle: Exclusion 4)	–	–	–	–	–	–	–	–	0.0385 µM	0.033 µM	0.0354 µM
UUUUGGCAGGCAAUUAUUAACAUGAGGAUCACCCAUGUGCAUCCAAAAUUACUUUUAGAUCAAGCUCGUCUUAUAUA [JR_STOV1_Sub087] (Eterna round: R97, puzzle: Sensor, turn-off variant 1)	–	–	–	–	–	0.0299 µM	0.0351 µM	–	–	–	–
AGUUGUAAAGAGGAUAUCCAUCCCGGCAUCCAUGGAGAAGGUUUAACAUGAGGAUCACCCAUGUCAUGAUCCUC [Eternabot (L2) Solution 3] (Eterna round: R97, puzzle: Exclusion 6)	–	–	–	–	–	0.824 µM	0.692 µM	–	–	–	–
AUACACUUAGUGAGGAUAUCGUUUUCUUUACGGAUCGAGAAGGCACAUGAGGAUCACCCAUGUUUGACGUGAAU [JR_BMOE4_Sub095] (puzzle: Brourd's mod of Exclusion 4)	–	–	–	–	–	–	–	–	–	0.0205 µM	–
GUCAGCUCGUGAGGAUAUAUAUACAUGAGGAUCACCCAUGUAAGAUCAGCACUUCGGUGCAGUAUAUAGAAGGCACGAGCUGAC [ENG2/13-A1] (Eterna round: R96, puzzle: Exclusion NG 2)	–	–	–	–	–	0.0461 µM	0.0291 µM	0.0216 µM	–	–	–
GCGUUUUGGUGAGGAUAUCGGCCCGAAACCGGGCAACAUGAGGAUCACCCAUGUACGUGAUCCUGCGAGAAGGCACCGAUUAUA [Bedi] (Eterna round: R96, puzzle: Exclusion NG 2)	–	–	–	–	–	0.99 µM	0.964 µM	0.0607 µM	–	–	–
UAUUUUGCAAGCAGAUCCCACAUGAGGAUCACCCAUGUGCUCGUCUUAUAAGGUUCUGUGACGAUAGUCACGGUACC [mod -Eli mod] (Eterna round: R97, puzzle: Sensor, turn-off variant 1)	–	–	–	–	–	0.0459 µM	0.0461 µM	–	–	–	–
AAGUCGACGGUGAGGAUAUUAGUUGAACGACAGAUUAAGAAGGUACAUGAGGAUCACCCAUGUGGGUAACGUUG [Brourd's EX4 #77] (Eterna round: R97, puzzle: Brourd's mod of Exclusion 4)	–	–	–	–	–	0.0763 µM	0.107 µM	–	–	–	–
